Key:
[1] = target: T1, rHuman IGF-1 sR (IGF-1 sR), CF (R&D Systems Cat#391-GR) (human, UniProt P08069 31-932); experiment: ECL (MSD multi-spot), antigen spotted on plate; Fab 1000 nM; blank 2142
T1 construct: Bought soluble receptor; also called insulin-like growth factor-1 soluble receptor; IGF-R1

[2] = target: T2, Recombinant Human DLL4 (R&D Systems Cat#1506-D4/CF) (human, UniProt Q9NR61 27-524); experiment: as above
T2 construct: Bought protein; also called rHuman DLL4; delta-like protein 4

[3] = target: T3, rHuman HGF R/c-MET/Fc Chimera, CF (R&D Systems Cat#358-MT/CF) (human, UniProt P08581 25-932); experiment: as above
T3 construct: Bought protein; also called HGF R/Fc; hepatocyte growth factor receptor; Fc part of the bought chimera not given

[4] = target: T4, rHuman EGF R/Fc Chimera, CF (R&D Systems Cat#344-ER) (human, UniProt P00533 25-645); experiment: as above
T4 construct: Bought protein; also called epidermal growth factor receptor; Fc part of the bought chimera not given

[5] = target: T1, rHuman IGF-1 sR (IGF-1 sR), CF (R&D …); experiment: ECL (MSD multi-spot), antigen spotted on plate; Fab 1.6 nM; blank 648
[6] = target: T2, Recombinant Human DLL4 (R&D Systems …); experiment: as above
[7] = target: T3, rHuman HGF R/c-MET/Fc Chimera, CF (R&D …); experiment: as above
[8] = target: T4, rHuman EGF R/Fc Chimera, CF (R&D …); experiment: as above
[9] = target: T1, rHuman IGF-1 sR (IGF-1 sR), CF (R&D …); experiment: ECL (MSD multi-spot), antigen spotted on plate; Fab 40 nM; blank 1229
[10] = target: T2, Recombinant Human DLL4 (R&D Systems …); experiment: as above
[11] = target: T3, rHuman HGF R/c-MET/Fc Chimera, CF (R&D …); experiment: as above
[12] = target: T4, rHuman EGF R/Fc Chimera, CF (R&D …); experiment: as above
[13] = target: T1, rHuman IGF-1 sR (IGF-1 sR), CF (R&D …); experiment: ECL (MSD multi-spot), antigen spotted on plate; Fab 0.32 nM; blank 428
[14] = target: T2, Recombinant Human DLL4 (R&D Systems …); experiment: as above
[15] = target: T3, rHuman HGF R/c-MET/Fc Chimera, CF (R&D …); experiment: as above
[16] = target: T4, rHuman EGF R/Fc Chimera, CF (R&D …); experiment: as above
[17] = target: T1, rHuman IGF-1 sR (IGF-1 sR), CF (R&D …); experiment: ECL (MSD multi-spot), antigen spotted on plate; Fab 200 nM; blank 1659
[18] = target: T2, Recombinant Human DLL4 (R&D Systems …); experiment: as above
[19] = target: T3, rHuman HGF R/c-MET/Fc Chimera, CF (R&D …); experiment: as above
[20] = target: T4, rHuman EGF R/Fc Chimera, CF (R&D …); experiment: as above
[21] = target: T1, rHuman IGF-1 sR (IGF-1 sR), CF (R&D …); experiment: ECL (MSD multi-spot), antigen spotted on plate; Fab 8 nM; blank 1188
[22] = target: T2, Recombinant Human DLL4 (R&D Systems …); experiment: as above
[23] = target: T3, rHuman HGF R/c-MET/Fc Chimera, CF (R&D …); experiment: as above
[24] = target: T4, rHuman EGF R/Fc Chimera, CF (R&D …); experiment: as above
[25] = target: T1, rHuman IGF-1 sR (IGF-1 sR), CF (R&D …); experiment: ECL (MSD multi-spot), antigen spotted on plate; Fab 1000 nM; blank 1742
[26] = target: T5, rHuman P-Cadherin/Fc Chimera, CF (R&D Systems Cat#861-PC) (human, UniProt P22223 108-654); experiment: as above
T5 construct: Bought protein; also called CDH3; Fc part of the bought chimera not given

[27] = target: T2, Recombinant Human DLL4 (R&D Systems …); experiment: as above
[28] = target: T6, rHuman CD44/Fc Chimera, CF (R&D Systems Cat#3660-CD) (human, UniProt P16070 21-220); experiment: as above
T6 construct: Bought protein; Fc part of the bought chimera not given

[29] = target: T1, rHuman IGF-1 sR (IGF-1 sR), CF (R&D …); experiment: ECL (MSD multi-spot), antigen spotted on plate; Fab 10 nM; blank 427
[30] = target: T5, rHuman P-Cadherin/Fc Chimera, CF (R&D …); experiment: as above
[31] = target: T2, Recombinant Human DLL4 (R&D Systems …); experiment: as above
[32] = target: T6, rHuman CD44/Fc Chimera, CF (R&D Systems …); experiment: as above
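Also: blank spot per well as comparator with Hit at signal to blank ratio of 4 or more.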

B1: Fab VH1-46_IGHD6-6*01_IGHJ1*01_S104A & L6_IGKJ1*01 (Fab, V domains shown)
VH: QVQLVQSGAEVKKPGASVKVSCKASGYTFTSYYMHWVRQAPGQGLEWMGIINPSGGSTSYAQKFQGRVTMTRDTSTSTVYMELSSLRSEDTAVYYCAREEYSSASAEYFQHWGQGTLVTVSS
VL: not shown
notes: Expressed in E. coli as a Fab; CH1 with Flag and His tags comes from Plasmid A and the kappa CL from Plasmid C; also called IGHV1-46*01; IGHJ1*01 S104A with IGKV3-11*01
ECL signal [1]: 3350
ECL signal [2]: 14300
ECL signal [3]: 3530
ECL signal [4]: 3480
ECL signal [5]: 815
ECL signal [6]: 2130
ECL signal [7]: 830
ECL signal [8]: 862
ECL signal [9]: 1900
ECL signal [10]: 13600
ECL signal [11]: 1540
ECL signal [12]: 1840
ECL signal [13]: 611
ECL signal [14]: 646
ECL signal [15]: 574
ECL signal [16]: 660
ECL signal [17]: 2600
ECL signal [18]: 14800
ECL signal [19]: 2440
ECL signal [20]: 2950
ECL signal [21]: 1290
ECL signal [22]: 9330
ECL signal [23]: 1300
ECL signal [24]: 1300

B2: Fab VH5-51_IGHD5-18*01>3_IGHJ4*01_G104T & V3-4_IGLJ1*01 (Fab, V domains shown)
VH: EVQLVQSGAEVKKPGESLKISCKGSGYSFTSYWIGWVRQMPGKGLEWMGIIYPGDSDTRYSPSFQGQVTISADKSISTAYLQWSSLKASDTAMYYCARRGYSYTYDYFDYWGQGTLVTVSS
VL: QTVVTQEPSFSVSPGGTVTLTCGLSSGSVSTSYYPSWYQQTPGQAPRTLIYSTNTRSSGVPDRFSGSILGNKAALTITGAQADDESDYYCVLYMGSGISYVFGTGTKVTVL
notes: Expressed in E. coli as a Fab; CH1 with Flag and His tags comes from Plasmid A and the lambda CL from Plasmid E; also called IGHV5-51*03; IGHJ4*01 G104T with IGLV8-61*01
ECL signal [25]: 3990
ECL signal [26]: 3430
ECL signal [27]: 29800
ECL signal [28]: 3380
ECL signal [29]: 1120
ECL signal [30]: 705
ECL signal [31]: 5230
ECL signal [32]: 841

Reference: US20120058906A1 (published 2012)
